# Measurements published in the nanobody polyreactivity screen of Harvey et al. (2022).
# Assay: yeast display, Sf9 membrane polyspecificity reagent, FACS + sequencing; frameworks hold sequencing errors
# In short: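 Galactose-induced (36–48 hours) yeast carrying a synthetic nanobody display library were exposed to 10% biotinylated, detergent-solubilized Sf9 membrane reagent at 4 °C for 1 hour. FACS followed streptavidin microbead enrichment, using low and high (top ~1%) gates for expression (anti-HA) and reagent binding (streptavidin). Colony PCR, MiSeq 2 × 250 sequencing and CDR-length filtering followed. Labels for polyreactivity reflect the gate of origin.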
row,Sequence,polyreactivity (PSR sort gate)
1,QVQLVESGGGLVQAGGSLRLSCAASGRIFSHYAMGWYRQAPGKERELVASITRGGTRTYADSVKGRFTISRDNAKNTVYLQMNSLKPEDSAVYYCAADGYAYYYEWSQGDLSYDHWGQVTQVTVSS,low polyreactivity
2,QVQLVESGGGLVQAGGSLRLSCAASGRTFYFYAMGWYRQAPGKERELVASITSSGGNTYYADSVKGRFTISRDNAKNTVYLQMNSLKPEDTAVYYCAARWFPWLQWKRYDYWGQGTQVTVSS,low polyreactivity
3,QVQLVESGGGLVQAGGSLRLSCAASGSTFSGNAMGWYRQAPGKEMEMVAAISGRGGSTYYADSVKGRFTISRDNAKNTVFLQMKSLKPEDTAVYYCAKRRNTRGAYGYWGQGTQVTVSS,high polyreactivity
4,QVQLVESGGGLVQAGGSLRLSCAASGSIFYRYAMGWYRQAPGKERELVAGISWTGGTYYADSVKGRFTISRDNAKNTVYLQMNSLKPEDTAVYYCAATIWIAYRGWYSDYNYWGQGTQVTVSS,low polyreactivity
5,QVQLVESGGGIVQAGGSLRLSCAASGPNFTDNAMGWYRQAPGKERELVAAITGPGGSTYYAHSVKGRFTISRDNAKTTVYLQMNSLKREDTAVFYCAADYYYPYYWGQGTQVTVSS,low polyreactivity
6,QVQLVESGGGLVQAGGSLRLSCAASGITFYRYAMGWYRQAPGKEREFVAAITWGSTYYADSVKGRFTISRDNAKNTVYLQMTSLKPEDTAVYYCNKKGYTVGATVGYWGQGTQVTVSS,low polyreactivity
7,QVQLVESGGGLVQAGGSLRLSCAASGRIFRINAMGWYRQAPGKERELVASITSRAGSTYYADSVKGRFTISRDNAKNTVYLQMNSLKPEDTAVYYCAARSVYTYYRLDYWGQGTQVTVSS,high polyreactivity
8,QVQLVESGGGLVQAGGSLRLSCAASGFTFRYNAMGWYRQAPGKKGSWVAAISRTGGSTYYADSVKGRFTISRDNAKNTVYLQMNSLKPEDTAVYYCATYSSRQRKSSYYYWGQGTQVTVSS,high polyreactivity
9,QVQLVESGGGLVQAGGSLRLSCAASGRTFYKNAMGWYRQAPGKERELVAAISYGGGSTYYADSVKGRFTISRDNAKNTVYLQMISLKPEDTAVYYCATQLPFRKPWHDYWGQGTQVTVSS,high polyreactivity
10,QVQLVESGGGLVQAGGSLRLSCAASGSTFGRYGMGWYSQAPGKERELVAAISKNAGSTYYADSVKGRCTISRDNAKNTVYLQMNSLKPEDTAVYYCAADWRTKGYDSLGQGTQVTVSS,high polyreactivity
11,QVQLVESGGGLVQAGGSLRLSCAASGSIFQGYSMGWYRQAPGKERELVAAITASGGSTYYADSVKGRFTISRDNAKNTVYLQMNSLKPEDTAVYYCATDSYWRQDLYRYEYWGQGTQVTVSS,high polyreactivity
12,QVQLVESGGGLVQAGGSLRLSCAASGFIFRYYAMGWYRHAPGKERELVAAISSGGRTSYADSVKGRFTISRDNAKNTVYLQMNSLKPEDTAVYYCAADSWRGLFYYGNDYWGQGTQVTVSS,high polyreactivity
13,QVQLVESGGGLVQAGGSLRLSCAASGFTFYLYVMGWYRQAPGTEREFVAAITGSGTSTYYADSVKGRFTISRDNAKNTVYLQMNSLKPEDTAVYYCNAKRDRYFYTVKYDYWGQGTQVTVSS,low polyreactivity
14,QVRLVESGGGLVQAGGSLRLSCAASGFTFVVNAMGWYRQAPGKERELVAAITCSGGRTYYADSVKGRFTISRDNAKNTVSLQMNSLKPEDTAVYYCNAEWDDYEIEYDYWGQGTQVTVSS,low polyreactivity
15,QVQLVESGGGLVQAGGRLRLSCAASGRTFSKYPLGWYRQAPGKERELVAAITSGGGTYYADSVKGRFTFSRDNAKNPVYLQMHSRKPEDTAVYYCAVSGTTVSTYDYWGQCTQVTVSS,low polyreactivity
16,QVQLVESGGGLVQAGGSLRLSCAASGRIFSKYTMGWYRQAPGKERELVAAISGSGTSTYYADSVKGRFTISRDNAKNTVYLQMNSLKPEDTAVYYCNAVKSWGHPGRYYWGQGTQVTVSS,high polyreactivity

row,Sequence,polyreactivity (PSR sort gate)
1,QVQLVESGGGLVQAGGSLRLSCAASGFTFHYYTMAWYRQAPGKEREFVAAMSKSGGRTYYADSVKGRFTISRDKAKNTVYLQMNSLKPEDTAVYYCSTVGYWRNRHDYWGQGTQVTVSS,high polyreactivity
2,QVQLVESGGGLVQAGGSLRLSCAASGSIIFAYAMGWYRQAPGKERELVAAITTGVSTNYADSVKGRFTISRDNAKNTVYLQMNSLKPEDTAVYYCNADVDYGFDAGVAVQVVIHDYWGQGTQVTVSS,low polyreactivity
3,QVHLVESGGGLVQAGRSLRLSCAASGRIFSRYAMGGSRQAPGKERELVAVISRSGADTYYADSVKGRFTISRDNAKTTVYLQMNSLKPEDSAVYSCNAYSARRPHPMGYDYWGQCTQVTVSS,high polyreactivity
4,QVQLVESGGGLVQAGGSLRLSCAASGIIFDPYAMGWYRQAPGKERELVADIDNASSTYYADSVKGRFTISRDNAKNTVYLQMNSLKPEDTAVYYCAADLWYGGEYWGQGTQVTVSS,low polyreactivity
5,QVQLVESGGGLVQAGGILRLSCAASGSIFNRNAMGWYRQAPGKEREFVADISWSGGSTYYADSVKGRFTISRDNAKNTVYLQMNSLKPEDTAVYYCAAKSTGRWWRAGYVYWGQGTQVTVSS,high polyreactivity
6,QVQLVESGGGLVQAGGSLRLSCAASGSIFALYAMGWYRQAPGQERELVAAISYRGGRTYYADSVKGRFTISRDNAKNTVYLQMNSLKPEDTAVYYCNARAFPFGTGVQGFGFGYWGQGTQVTVSS,low polyreactivity
7,QVQLVESGGGLVQAGGSLRLSCAASGSTFTPYAMGWYRQAPGQEREFVAAITSIGGSTYYADSVKGRITISRDNAKNTVYLQMIRLKPEDTAVYNCAADYSEWTLWNDYWGQCTQVTVSS,high polyreactivity
8,QDQLVESGGGLVQAGGSLRLSCAASGRIFEGNAMGWYRQAPGKEREFLAAISDGGSTNYADSVKGRFTISRDNAKNTVYLQLNSLKPEETAVYYCNVGANVYMLYFPSRGGVYDYGYWGQGTQVNVSS,low polyreactivity
9,QVQLVESGGGLVQAGGSLRLSCAASGFTFGWYAMGWYRQAPGKEREFVATITYSGGSTYYADSVKGRFTISRDNAKNTVYLQMNSLKPEDTAVYYCAAARYWYRRFDYWGQGTQVTVSS,high polyreactivity
10,QVQLVESGGGLVQAGGSLRLSCAASGSIFVYNAMGWYRQAPGKEMELVASITWSGGRTYYADSVKGRFTISRDHAKNTVYLQMNSLKPEDTAVYYCNKRQYSRTFRYGYWGQGTQVTLSS,high polyreactivity
11,QVQLVESGGGLVQAGGSLRLSCAASGRTFVVNDMGWYRQAPGNDRELVAAINYNAGSTFYADSVKGRFTISRDNAKKTVYLQMNSLKPEATAVYYCATDVYGYVEYDYWGQGTQVTVSS,low polyreactivity
12,QVQLVESGGGLVQAGGSLRLSCAASGSTFGYYAMGWYRQAPGKERELVAAISDGGSTYYADSVKGRFTISRDNAKNTVYLQMNSLKPEDTAVYYCAAEYLAYDWYEYYYWGQGTQVTVSS,high polyreactivity
13,QVQLVESGGGLVQAGGSLRLSCAASGSIFYVYAMGGYRQAPGKERELVAAISKSGGSTYYADSVKGRFTISRDNAKNTVYLQMNRLKPEDTAVYYCAAYFSYGSIIEDYWGQGTQVTVSS,low polyreactivity
14,QVQLVESGGGLVKAGGSLRLSCAASGRTFASYAMGWYRQAPGKERELVAVITRGGRTYYADSVKGRFTISRDNAKNTVYLQMNSLKPEDTAVYYCNAAYYSSSYLEDYWGQGTQVTVSS,high polyreactivity
15,QVQLVESGGGLVQAGGSLRLSCAASGRTFYYYAMGWYRQAPGKERELVAGINSGGSTNYADSVKGRFTISRDNAKNTVYLQMNSLKPEDTAVYYCAVEDLVSEGWGWYKEMDYWGQGTQVTVSS,low polyreactivity
16,QVQLVESGGGLVQAGGSLRLSCAASGSTLVQYVMGWYRQAPGKERELVAAISGSGGSTYYADSVKGRFTISRDNAKNTVYLQMNSLKPEDTAVYYCAASRRSGYGYWGQGTQVTVSS,high polyreactivity
